Test results from publication PMC2865030 (Biochemical Journal, 2008).

B1: Tah1 (TPR-containing protein associated with Hsp90) (natural protein)
chain: MSQFEKQKEQGNSLFKQGLYREAVHCYDQLITAQPQNPVGYSNKAMALIKLGEYTQAIQMCQQGLRYTSTAEHVAIRSKLQYRLELAQGAVGSVQIPVVEVDELPEGYDRS

What was measured:
Experiment in all cases: ITC
[1] = target: B1
[2] = target: human Hsp90β (His-tagged) (human, UniProt P08238 1-724)
[3] = target: yeast Ssa1 (Hsp70, His-tagged) (yeast, UniProt P10591 1-642)
human Hsp90α = human Hsp90α (human, UniProt P07900 1-732)

Chain of human Hsp90β (His-tagged) (P08238 whole entry): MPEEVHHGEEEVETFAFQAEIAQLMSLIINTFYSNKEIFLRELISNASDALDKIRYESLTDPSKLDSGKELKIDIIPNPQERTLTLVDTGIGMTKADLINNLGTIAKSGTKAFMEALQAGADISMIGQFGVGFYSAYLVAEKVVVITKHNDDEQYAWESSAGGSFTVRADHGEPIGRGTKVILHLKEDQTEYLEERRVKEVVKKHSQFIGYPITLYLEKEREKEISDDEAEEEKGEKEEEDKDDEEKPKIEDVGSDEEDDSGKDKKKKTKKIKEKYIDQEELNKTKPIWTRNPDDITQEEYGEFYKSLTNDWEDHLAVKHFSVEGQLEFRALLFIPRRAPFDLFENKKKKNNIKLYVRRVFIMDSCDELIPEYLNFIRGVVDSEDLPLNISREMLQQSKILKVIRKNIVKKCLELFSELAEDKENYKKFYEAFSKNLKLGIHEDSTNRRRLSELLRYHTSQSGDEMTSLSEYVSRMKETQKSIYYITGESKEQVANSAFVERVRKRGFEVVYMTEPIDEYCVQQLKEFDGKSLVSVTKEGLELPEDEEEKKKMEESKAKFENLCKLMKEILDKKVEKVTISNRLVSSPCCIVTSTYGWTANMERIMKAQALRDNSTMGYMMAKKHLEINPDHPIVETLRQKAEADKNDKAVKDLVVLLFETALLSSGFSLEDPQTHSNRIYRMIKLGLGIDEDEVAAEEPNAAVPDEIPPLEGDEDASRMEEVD
Chain of yeast Ssa1 (Hsp70, His-tagged) (P10591 whole entry): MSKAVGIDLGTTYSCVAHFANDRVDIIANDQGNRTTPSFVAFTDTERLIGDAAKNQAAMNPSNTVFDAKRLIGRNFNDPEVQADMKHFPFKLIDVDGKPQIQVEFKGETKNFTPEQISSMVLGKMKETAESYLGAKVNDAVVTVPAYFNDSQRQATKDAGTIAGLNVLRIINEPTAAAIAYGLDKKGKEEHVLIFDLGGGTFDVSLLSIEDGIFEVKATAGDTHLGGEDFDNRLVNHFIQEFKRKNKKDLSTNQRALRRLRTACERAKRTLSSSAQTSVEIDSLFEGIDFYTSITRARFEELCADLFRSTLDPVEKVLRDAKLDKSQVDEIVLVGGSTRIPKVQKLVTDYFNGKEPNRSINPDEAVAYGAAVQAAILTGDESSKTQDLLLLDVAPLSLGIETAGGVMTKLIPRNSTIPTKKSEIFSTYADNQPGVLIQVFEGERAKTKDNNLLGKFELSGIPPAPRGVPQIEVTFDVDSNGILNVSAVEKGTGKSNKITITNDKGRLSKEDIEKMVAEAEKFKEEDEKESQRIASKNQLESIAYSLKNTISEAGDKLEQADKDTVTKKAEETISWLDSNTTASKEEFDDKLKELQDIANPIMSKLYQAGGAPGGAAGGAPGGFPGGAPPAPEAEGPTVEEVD

Question: What does the source list for DDTSRMEEVD [DDTSRMEEVD decapeptide (C-terminal end of human Hsp90α)]?
Answer: Kd [1]: 900 ± 60 nM; stoichiometry N [1]: 1.1

Question: For B1, which Kd [2] is on record?
Answer: 340 ± 70 nM

Question: And the “stoichiometry N” value [2]?
Answer: 0.84

Question: What about the Kd [3] of the same binder?
Answer: 16000 ± 2500 nM

Question: What about the Kd (human Hsp90α) of the same binder?
Answer: 330 ± 30 nM

Question: And the “stoichiometry N” value (human Hsp90α)?
Answer: 1.1

Question: MEEVD [MEEVD pentapeptide (C-terminal end of yeast Hsp90)] was tested. Which “stoichiometry N” value [1] did it give?
Answer: 1.1

Question: With VEEVD [VEEVD pentapeptide (C-terminal end of Ssa1)] as the binder, how does the Kd [1] read?
Answer: 48800 ± 5500 nM

Question: How did the Kd [1] turn out when AEGPTVEEVD [AEGPTVEEVD decapeptide (C-terminal end of Ssa1, wild-type sequence)] was run?
Answer: 28900 ± 3100 nM

Question: And the “stoichiometry N” value [1]?
Answer: 1.2

Question: How did the Kd [1] turn out when EDASRMEEVD [EDASRMEEVD decapeptide (C-terminal end of human Hsp90β)] was run?
Answer: 1000 ± 190 nM

Question: What about the “stoichiometry N” value [1] of the same binder?
Answer: 0.81

Question: TEMEEVD [TEMEEVD heptapeptide (C-terminal end of yeast Hsp90)] was tested. Which Kd [1] did it give?
Answer: 950 ± 40 nM

Question: And the “stoichiometry N” value [1]?
Answer: 1.2

Question: Which Kd [1] does the source give for PTVEEVD [PTVEEVD heptapeptide (C-terminal end of Ssa1)] here?
Answer: 10600 ± 1400 nM

Question: What about the “stoichiometry N” value [1] of the same binder?
Answer: 1
